The source of these data is US20160137708A1 (Amgen, published 2016).

Common to all, as to experiment: cell-based or functional assay
In test [1] the target is T1, human IL-1Rrp2 (IL-1R-related protein 2) (human, UniProt Q9HB29 20-575).
T1 sequence (looked up): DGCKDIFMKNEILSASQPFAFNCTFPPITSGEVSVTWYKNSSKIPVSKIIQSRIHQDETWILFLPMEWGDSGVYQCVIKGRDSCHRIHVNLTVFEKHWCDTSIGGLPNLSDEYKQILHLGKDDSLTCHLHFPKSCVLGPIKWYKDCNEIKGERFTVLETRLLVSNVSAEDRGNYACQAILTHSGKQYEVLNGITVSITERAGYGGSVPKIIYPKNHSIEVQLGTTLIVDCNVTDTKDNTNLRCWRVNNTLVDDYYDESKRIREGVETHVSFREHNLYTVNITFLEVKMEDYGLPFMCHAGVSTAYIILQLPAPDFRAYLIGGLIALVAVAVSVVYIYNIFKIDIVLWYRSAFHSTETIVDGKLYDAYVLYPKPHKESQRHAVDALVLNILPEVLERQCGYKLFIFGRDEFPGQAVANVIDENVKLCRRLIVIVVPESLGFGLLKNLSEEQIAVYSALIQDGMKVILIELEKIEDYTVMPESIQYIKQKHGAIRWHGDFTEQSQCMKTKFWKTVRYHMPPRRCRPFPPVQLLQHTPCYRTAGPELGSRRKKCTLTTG

Test [2] has as its target T1, human IL-1Rrp2 (IL-1R-related protein 2). This is another data set of the same source.
For test [3] the target is unchanged. This is another data set of the same source.

Where two headings read alike, the source gives them in different places. Bounds are passed on as bounds.

B1: HuIL-1F8R5 (ligand)
chain: REAAPKSYAIRDSRQMVWVLSGNSLIAAPLSRSIKPVTLHLIACRDTEFSDKEKGNMVYLGIKGKDLCLFCAEIQGKPTLQLKEKNIMDLYVEKKAQKPFLFFHNKEGSTSVFQSVSYPGWFIATSTTSGQPIFLTKERGITNNTNFYLDSVE
In the case of B1, the “EC50, IL-8 ELISA of supernatants of Jurkat T-REx cells expressing human IL-1Rrp2” value (shortened to “EC50, IL-8 ELISA”) in test [1] was 0.129 ng/mL.

B2: HuIL-1F9WT/FpH (ligand)
chain: MRGTPGDADGGGRAVYQSMCKPITGTINDLNQQVWTLQGQNLVAVPRSDSVTPVTVAVITCKYPEALEQGRGDPIYLGIQNPEMCLYCEKVGEQPTLQLKEQKIMDLYGQPEPVKPFLFYRAKTGRTSTLESVAFPDWFIASSKRDQPIILTSELGKSYNTAFELNINDDYKDDDDKHHHHHH
On to B2, for which the EC50, luciferase reporter assay in IL-1Rrp2 transfected Jurkat cells in test [2] was over 332 ng/mL.

B3: HuIL-1F6I7/FpH (ligand)
chain: MIDTPQRGSIQDINHRVWVLQDQTLIAVPRKDRMSPVTIALISCRHVETLEKDRGNPIYLGLNGLNLCLMCAKVGDQPTLQLKEKDIMDLYNQPEPVKSFLFYHSQSGRNSTFESVAFPGWFIAVSSEGGCPLILTQELGKANTTDFGLTMLFDYKDDDDKHHHHHH
On to B3, for which the “EC50, luciferase reporter assay in IL-1Rrp2 transfected Jurkat cells” value (shortened to “EC50, luciferase reporter assay”) in test [3] came to 2.8 ng/mL. In addition, the “EC50, IL-8 ELISA” value in test [1] worked out at 60 ng/mL.

B4: HuIL-1F8WT/FpH (ligand)
chain: MNPQREAAPKSYAIRDSRQMVWVLSGNSLIAAPLSRSIKPVTLHLIACRDTEFSDKEKGNMVYLGIKGKDLCLFCAEIQGKPTLQLKEKNIMDLYVEKKAQKPFLFFHNKEGSTSVFQSVSYPGWFIATSTTSGQPIFLTKERGITNNTNFYLDSVEDYKDDDDKHHHHHH
Turning to B4, the EC50, luciferase reporter assay in IL-1Rrp2 transfected Jurkat cells in test [2] was over 258 ng/mL.

B5: HuIL-1F6K6 (ligand)
chain: KIDTPQQGSIQDINHRVWVLQDQTLIAVPRKDRMSPVTIALISCRHVETLEKDRGNPIYLGLNGLNLCLMCAKVGDQPTLQLKEKDIMDLYNQPEPVKSFLFYHSQSGRNSTFESVAFPGWFIAVSSEGGCPLILTQELGKANTTDFGLTMLF
As for B5, the “EC50, IL-8 ELISA” value in test [1] was 0.164 ng/mL.

B6: HuIL-1F8WT (untagged full length wild type human IL-1F8) (ligand)
chain: MNPQREAAPKSYAIRDSRQMVWVLSGNSLIAAPLSRSIKPVTLHLIACRDTEFSDKEKGNMVYLGIKGKDLCLFCAEIQGKPTLQLKEKNIMDLYVEKKAQKPFLFFHNKEGSTSVFQSVSYPGWFIATSTTSGQPIFLTKERGITNNTNFYLDSVE
In test [2], B6 had an EC50, IL-8 ELISA of supernatants of Jurkat T-REx cells expressing human IL-1Rrp2 of 10500 ng/mL and an EC50, luciferase reporter assay in IL-1Rrp2 transfected Jurkat cells of over 193 ng/mL.

B7: HuIL-1F9WT (untagged full length wild type human IL-1F9) (ligand)
chain: MRGTPGDADGGGRAVYQSMCKPITGTINDLNQQVWTLQGQNLVAVPRSDSVTPVTVAVITCKYPEALEQGRGDPIYLGIQNPEMCLYCEKVGEQPTLQLKEQKIMDLYGQPEPVKPFLFYRAKTGRTSTLESVAFPDWFIASSKRDQPIILTSELGKSYNTAFELNIND
Consider B7, for which, in test [2], the EC50, IL-8 ELISA of supernatants of Jurkat T-REx cells expressing human IL-1Rrp2 is 4070 ng/mL and the EC50, luciferase reporter assay in IL-1Rrp2 transfected Jurkat cells was over 544 ng/mL.

B8: HuIL-1F6WT/FpH (ligand)
chain: MEKALKIDTPQQGSIQDINHRVWVLQDQTLIAVPRKDRMSPVTIALISCRHVETLEKDRGNPIYLGLNGLNLCLMCAKVGDQPTLQLKEKDIMDLYNQPEPVKSFLFYHSQSGRNSTFESVAFPGWFIAVSSEGGCPLILTQELGKANTTDFGLTMLFDYKDDDDKHHHHHH
Molecule B8 showed an EC50, luciferase reporter assay in IL-1Rrp2 transfected Jurkat cells in test [2] of over 136 ng/mL.

B9: HuIL-1F6 WT (untagged full length wild type human IL-1F6) (ligand)
chain: MEKALKIDTPQQGSIQDINHRVWVLQDQTLIAVPRKDRMSPVTIALISCRHVETLEKDRGNPIYLGLNGLNLCLMCAKVGDQPTLQLKEKDIMDLYNQPEPVKSFLFYHSQSGRNSTFESVAFPGWFIAVSSEGGCPLILTQELGKANTTDFGLTMLF
Regarding B9, in test [2], the EC50, IL-8 ELISA of supernatants of Jurkat T-REx cells expressing human IL-1Rrp2 was determined as 12900 ng/mL and the EC50, luciferase reporter assay in IL-1Rrp2 transfected Jurkat cells was over 212 ng/mL.

B10: HuIL-1F9S18 (ligand)
chain: SMCKPITGTINDLNQQVWTLQGQNLVAVPRSDSVTPVTVAVITCKYPEALEQGRGDPIYLGIQNPEMCLYCEKVGEQPTLQLKEQKIMDLYGQPEPVKPFLFYRAKTGRTSTLESVAFPDWFIASSKRDQPIILTSELGKSYNTAFELNIND
Turning to B10, in test [1], the “EC50, IL-8 ELISA” value came to 1 ng/mL.

B11: HuIL-1F8E6/FpH (ligand)
chain: MEAAPKSYAIRDSRQMVWVLSGNSLIAAPLSRSIKPVTLHLIACRDTEFSDKEKGNMVYLGIKGKDLCLFCAEIQGKPTLQLKEKNIMDLYVEKKAQKPFLFFHNKEGSTSVFQSVSYPGWFIATSTTSGQPIFLTKERGITNNTNFYLDSVEDYKDDDDKHHHHHH
For B11, in test [3], the “EC50, luciferase reporter assay” value came out at 0.2 ng/mL. In addition, in test [1], the “EC50, IL-8 ELISA” value stood at 2 ng/mL.

B12: HuIL-1F9S18/FpH (ligand)
chain: SMCKPITGTINDLNQQVWTLQGQNLVAVPRSDSVTPVTVAVITCKYPEALEQGRGDPIYLGIQNPEMCLYCEKVGEQPTLQLKEQKIMDLYGQPEPVKPFLFYRAKTGRTSTLESVAFPDWFIASSKRDQPIILTSELGKSYNTAFELNINDDYKDDDDKHHHHHH
As to B12, in test [3], the “EC50, luciferase reporter assay” value came to 1 ng/mL. Also, in test [1], the “EC50, IL-8 ELISA” value was 17 ng/mL.

B13: HuIL-1F9M19/FpH (ligand)
chain: MMCKPITGTINDLNQQVWTLQGQNLVAVPRSDSVTPVTVAVITCKYPEALEQGRGDPIYLGIQNPEMCLYCEKVGEQPTLQLKEQKIMDLYGQPEPVKPFLFYRAKTGRTSTLESVAFPDWFIASSKRDQPIILTSELGKSYNTAFELNINDDYKDDDDKHHHHHH
For B13, the “EC50, luciferase reporter assay” value in test [3] came out at 1.1 ng/mL.
